Test results published in the supplement of paper PMC9112550, “Optimization of the antimicrobial peptide Bac7 by deep mutational scanning” (BMC Biology, 2022).

What follows are sequences tested on Escherichia coli TOP10 (assay: shrunken log2 fold change of peptide-encoding DNA abundance (4.5 h post-induction vs induction); higher = less antimicrobial activity (less host growth inhibition)). Conditions: time post-induction: 4.5 h; library: site-saturation at positions 5, 18, 19, 20.
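Also: peptides expressed intracellularly from a pBAD plasmid library in pooled LB shake-flask culture, induced with 0.3% L-arabinose, DNA abundance read by NGS, three biological replicates, DESeq2 with apeglm shrinkage.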

| Sequence | shrunken log2 fold change |
| --- | --- |
| RRIRNRPPRLPRPRPRPMLHPRP | -0.263 |
| RRIRNRPPRLPRPRPRPMNYPRP | -0.00918 |
| RRIRNRPPRLPRPRPRPMPTPRP | 0.257 |
| RRIRNRPPRLPRPRPRPMQMPRP | 0.0963 |
| RRIRNRPPRLPRPRPRPMRCPRP | -0.123 |
| RRIRNRPPRLPRPRPRPMRPPRP | 0.537 |
| RRIRNRPPRLPRPRPRPMSCPRP | -0.0294 |
| RRIRNRPPRLPRPRPRPMTCPRP | -0.0075 |
| RRIRNRPPRLPRPRPRPMTHPRP | -0.405 |
| RRIRNRPPRLPRPRPRPMVDPRP | -0.131 |
| RRIRNRPPRLPRPRPRPMYDPRP | 0.0456 |
| RRIRNRPPRLPRPRPRPNCFPRP | 0.0424 |
| RRIRNRPPRLPRPRPRPNDSPRP | -0.235 |
| RRIRNRPPRLPRPRPRPNEIPRP | 0.145 |
| RRIRNRPPRLPRPRPRPNEKPRP | -0.00172 |
| RRIRNRPPRLPRPRPRPNENPRP | 0.215 |
| RRIRNRPPRLPRPRPRPNFQPRP | -0.0807 |
| RRIRNRPPRLPRPRPRPNGWPRP | -0.0113 |
| RRIRNRPPRLPRPRPRPNHIPRP | -0.733 |
| RRIRNRPPRLPRPRPRPNHSPRP | -0.525 |
| RRIRNRPPRLPRPRPRPNLRPRP | -0.325 |
| RRIRNRPPRLPRPRPRPNMCPRP | -0.0592 |

| Sequence | shrunken log2 fold change |
| --- | --- |
| RRIRNRPPRLPRPRPRPNMFPRP | -0.00614 |
| RRIRNRPPRLPRPRPRPNMTPRP | -0.345 |
| RRIRNRPPRLPRPRPRPNPNPRP | 0.0656 |
| RRIRNRPPRLPRPRPRPNPSPRP | -0.00451 |
| RRIRNRPPRLPRPRPRPNQMPRP | -0.153 |
| RRIRNRPPRLPRPRPRPNREPRP | 0.00564 |
| RRIRNRPPRLPRPRPRPNSEPRP | -0.258 |
| RRIRNRPPRLPRPRPRPNSYPRP | -0.299 |
| RRIRNRPPRLPRPRPRPNTCPRP | -0.195 |
| RRIRNRPPRLPRPRPRPNVGPRP | -0.183 |
| RRIRNRPPRLPRPRPRPNVPPRP | -0.128 |
| RRIRNRPPRLPRPRPRPNYSPRP | -0.364 |
| RRIRNRPPRLPRPRPRPPAHPRP | 0.626 |
| RRIRNRPPRLPRPRPRPPAQPRP | 0.314 |
| RRIRNRPPRLPRPRPRPPCAPRP | -0.0473 |
| RRIRNRPPRLPRPRPRPPDHPRP | 0.0887 |
| RRIRNRPPRLPRPRPRPPDVPRP | -0.14 |
| RRIRNRPPRLPRPRPRPPEEPRP | -0.032 |
| RRIRNRPPRLPRPRPRPPFAPRP | 0.201 |
| RRIRNRPPRLPRPRPRPPFFPRP | 0.162 |
| RRIRNRPPRLPRPRPRPPGDPRP | 0.127 |
| RRIRNRPPRLPRPRPRPPGNPRP | 0.532 |

| Sequence | shrunken log2 fold change |
| --- | --- |
| RRIRNRPPRLPRPRPRPPHFPRP | 0.0188 |
| RRIRNRPPRLPRPRPRPPITPRP | 0.187 |
| RRIRNRPPRLPRPRPRPPLLPRP | 0.125 |
| RRIRNRPPRLPRPRPRPPMAPRP | 0.361 |
| RRIRNRPPRLPRPRPRPPMEPRP | -0.203 |
| RRIRNRPPRLPRPRPRPPNNPRP | -0.598 |
| RRIRNRPPRLPRPRPRPPPFPRP | 0.47 |
| RRIRNRPPRLPRPRPRPPPKPRP | 1.5 |
| RRIRNRPPRLPRPRPRPPSHPRP | -0.301 |
| RRIRNRPPRLPRPRPRPPVDPRP | 0.36 |
| RRIRNRPPRLPRPRPRPPWYPRP | -0.224 |
| RRIRNRPPRLPRPRPRPPYQPRP | -0.22 |
| RRIRNRPPRLPRPRPRPQAAPRP | -0.0424 |
| RRIRNRPPRLPRPRPRPQATPRP | 0.991 |
| RRIRNRPPRLPRPRPRPQCMPRP | 2.42 |
| RRIRNRPPRLPRPRPRPQDEPRP | 0.00847 |
| RRIRNRPPRLPRPRPRPQDRPRP | 0.0155 |
| RRIRNRPPRLPRPRPRPQESPRP | -0.342 |
| RRIRNRPPRLPRPRPRPQGGPRP | -0.28 |
| RRIRNRPPRLPRPRPRPQGTPRP | -0.0148 |
| RRIRNRPPRLPRPRPRPQHDPRP | -0.25 |
| RRIRNRPPRLPRPRPRPQICPRP | -0.0199 |

| Sequence | shrunken log2 fold change |
| --- | --- |
| RRIRNRPPRLPRPRPRPQIGPRP | 0.0326 |
| RRIRNRPPRLPRPRPRPQINPRP | -0.181 |
| RRIRNRPPRLPRPRPRPQLVPRP | -0.0147 |
| RRIRNRPPRLPRPRPRPQLYPRP | -0.206 |
| RRIRNRPPRLPRPRPRPQMPPRP | -0.334 |
| RRIRNRPPRLPRPRPRPQPDPRP | -0.0718 |
| RRIRNRPPRLPRPRPRPQPHPRP | -0.0382 |
| RRIRNRPPRLPRPRPRPQQMPRP | 0.0512 |
| RRIRNRPPRLPRPRPRPQQNPRP | 0.00594 |
| RRIRNRPPRLPRPRPRPQQWPRP | -0.0346 |
| RRIRNRPPRLPRPRPRPQQYPRP | 0.017 |
| RRIRNRPPRLPRPRPRPQSWPRP | -0.0543 |
| RRIRNRPPRLPRPRPRPQTGPRP | -0.505 |
| RRIRNRPPRLPRPRPRPQTYPRP | -0.375 |
| RRIRNRPPRLPRPRPRPQVNPRP | -0.129 |
| RRIRNRPPRLPRPRPRPQVWPRP | 0.0895 |
| RRIRNRPPRLPRPRPRPQVYPRP | -0.0412 |
| RRIRNRPPRLPRPRPRPRAMPRP | 0.37 |
| RRIRNRPPRLPRPRPRPRARPRP | 0.856 |
| RRIRNRPPRLPRPRPRPRCHPRP | -0.572 |
| RRIRNRPPRLPRPRPRPRGIPRP | -0.0954 |
| RRIRNRPPRLPRPRPRPRHIPRP | -0.0233 |

| Sequence | shrunken log2 fold change |
| --- | --- |
| RRIRNRPPRLPRPRPRPRIGPRP | 0.0705 |
| RRIRNRPPRLPRPRPRPRPSPRP | 0.443 |
| RRIRNRPPRLPRPRPRPRQSPRP | 0.112 |
| RRIRNRPPRLPRPRPRPRRFPRP | 0.0247 |
| RRIRNRPPRLPRPRPRPRRYPRP | 0.0725 |
| RRIRNRPPRLPRPRPRPRSTPRP | -0.0419 |
| RRIRNRPPRLPRPRPRPRTRPRP | 0.368 |
| RRIRNRPPRLPRPRPRPRWEPRP | 0.291 |
| RRIRNRPPRLPRPRPRPRYLPRP | -0.547 |
| RRIRNRPPRLPRPRPRPRYPPRP | -0.121 |
| RRIRNRPPRLPRPRPRPSAHPRP | -0.0549 |
| RRIRNRPPRLPRPRPRPSALPRP | -0.213 |
| RRIRNRPPRLPRPRPRPSAMPRP | -0.188 |
| RRIRNRPPRLPRPRPRPSDDPRP | -0.0915 |
| RRIRNRPPRLPRPRPRPSETPRP | -0.083 |
| RRIRNRPPRLPRPRPRPSFRPRP | 0.0751 |
| RRIRNRPPRLPRPRPRPSIKPRP | -0.0594 |
| RRIRNRPPRLPRPRPRPSIVPRP | -0.335 |
| RRIRNRPPRLPRPRPRPSKPPRP | -0.399 |
| RRIRNRPPRLPRPRPRPSLVPRP | -0.292 |
| RRIRNRPPRLPRPRPRPSMNPRP | -0.578 |
